The results in this text go back to patent US8133978.

For the test, the target named is Human interleukin-18 (recombinant human IL-18) (human) (UniProt Q14116). Nature of the test: cell-based or functional assay.
Chain of Human interleukin-18 (recombinant human IL-18) (human) (Q14116 37-193 limits assumed): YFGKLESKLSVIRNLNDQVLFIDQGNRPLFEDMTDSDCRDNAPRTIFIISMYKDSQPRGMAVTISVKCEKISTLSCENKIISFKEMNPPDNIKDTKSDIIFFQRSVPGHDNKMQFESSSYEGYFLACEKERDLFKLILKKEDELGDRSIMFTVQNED

Chain of IL-18 bp (IL-18 binding protein as used in the bioassays) (O95998 31-194 limits assumed): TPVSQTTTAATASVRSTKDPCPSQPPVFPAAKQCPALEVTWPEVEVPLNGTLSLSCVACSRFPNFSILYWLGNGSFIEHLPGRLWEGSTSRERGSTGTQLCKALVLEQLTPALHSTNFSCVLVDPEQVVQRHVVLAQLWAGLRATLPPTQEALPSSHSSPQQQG

Take “IL-18 bp (IL-18 binding protein as used in the bioassays) (from UniProt O95998 31-194)”: the IC50, LPS-stimulated IFNγ release, human PBMC, Donor 1 10% serum came to 0.024; the IC50, LPS-stimulated IFNγ release, human PBMC, Donor 1 25% serum was 0.064; the IC50, LPS-stimulated IFNγ release, human PBMC, Donor 3 10% serum was 0.032; the IC50, LPS-stimulated IFNγ release, human PBMC, Donor 3 25% serum is 0.046. Moreover, the complete inhibition of IL-18 mediated IFNγ release, LPS-stimulated human PBMC, 10% or 25% human serum was more than 1 µg/mL.
